From paper PMC9825183, “A cap 0-dependent mRNA capture method to analyze the yeast transcriptome”

T1: IFIT1 (6xHis) (Homo sapiens, UniProt P09914 1-478)
T1 sequence: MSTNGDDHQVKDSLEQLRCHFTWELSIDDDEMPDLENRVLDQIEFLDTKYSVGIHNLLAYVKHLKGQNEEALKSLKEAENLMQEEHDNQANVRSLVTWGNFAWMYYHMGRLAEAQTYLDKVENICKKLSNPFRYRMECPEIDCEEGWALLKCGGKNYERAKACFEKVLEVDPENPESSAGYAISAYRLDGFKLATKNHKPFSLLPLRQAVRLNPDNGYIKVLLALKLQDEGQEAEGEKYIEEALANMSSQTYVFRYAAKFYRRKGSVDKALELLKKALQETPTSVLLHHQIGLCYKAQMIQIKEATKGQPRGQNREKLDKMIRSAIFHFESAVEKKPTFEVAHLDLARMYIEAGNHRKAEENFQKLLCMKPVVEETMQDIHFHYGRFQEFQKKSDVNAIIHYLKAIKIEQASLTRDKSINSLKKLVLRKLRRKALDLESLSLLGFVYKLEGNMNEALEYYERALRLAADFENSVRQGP

B1: cap 0 160-mer (ssRNA)
RNA: GAAUACACGGAAUUCCUUUUUUUUUUUUUUUUUUUUUUUUAAGAAAGGCAGACUGCCACAUGCAGCGCCUCAUUUGGAUGUGUCUGGAGUCUUGGAAGCUUGACUACCCUACGUUCUCCUACAAAUGGACCUUGAGAGCUUGUUUGGAGGUUCUAGCAGG
modifications: 5' cap 0 (m7Gppp), Vaccinia Capping System

Tests used:
[1] = test system: IFIT1 (His-SUMO removed) (Homo sapiens); experiment: MST; settings: apparent Kd; 10 nM RNA, protein up to 1 uM; 5' cap 0 (m7Gppp), Vaccinia Capping System; MST: PBS, 5% glycerol, 0.5 mM TCEP, 0.05% Tween20, 22 C. Pull-down: 50 mM Tris pH 7.5, 150 mM NaCl (wash 250 mM), 1 mM DTT, 5 mM imidazole, 0.01% Tween 20, 3 mM
[2] = target: T1, IFIT1 (6xHis); experiment: pull-down; Con-B; mix of four RNAs; poly(dI-dC) 2 ug/ml; 3 mM MgCl2; MST: PBS, 5% glycerol, 0.5 mM TCEP, 0.05% Tween20, 22 C. Pull-down: 50 mM Tris pH 7.5, 150 mM NaCl (wash 250 mM), 1 mM DTT, 5 mM imidazole, 0.01% Tween 20, 3 mM MgCl2, 2 ug/ml poly(dI-dC), 4 C; settings: protein: recombinant; tags: 6xHis (pETG10a; tag described as N-terminal); single-stranded 5' end (predicted)

Molecule | Kd [1] | binding result [2]
Cap 0-100-mer (Cy5) | 47 nM | 
B1 |  | binds
